Test results from US20200138970A1 (Bayer, published 2020).

Experiments:
[1] = target: T1, human B7H3 on cancer cell lines (human, UniProt Q5ZPR3 29-534); assay: cell-based or functional assay
T1 sequence (looked up): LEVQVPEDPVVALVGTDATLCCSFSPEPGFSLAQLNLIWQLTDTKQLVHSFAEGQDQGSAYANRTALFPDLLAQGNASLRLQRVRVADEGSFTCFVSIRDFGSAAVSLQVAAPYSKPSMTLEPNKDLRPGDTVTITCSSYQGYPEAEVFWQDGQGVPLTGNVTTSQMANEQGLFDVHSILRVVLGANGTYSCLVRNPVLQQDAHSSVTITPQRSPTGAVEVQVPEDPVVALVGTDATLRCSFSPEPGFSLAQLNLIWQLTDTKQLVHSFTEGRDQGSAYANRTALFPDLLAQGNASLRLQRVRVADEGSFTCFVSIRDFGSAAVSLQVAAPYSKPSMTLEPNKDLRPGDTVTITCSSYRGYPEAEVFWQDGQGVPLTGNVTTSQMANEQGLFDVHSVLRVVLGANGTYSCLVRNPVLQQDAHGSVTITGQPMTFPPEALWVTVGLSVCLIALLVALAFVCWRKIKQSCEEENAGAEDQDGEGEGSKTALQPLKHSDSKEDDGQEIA

[2] = target: T1, human B7H3 on cancer cell lines; assay: cell-based or functional assay; remark: listed apart in the source
[3] = target: T1, human B7H3 on cancer cell lines; assay: flow cytometry on A498 cells, dose response from 10 ug/mL (1:5 dilution), FITC secondary antibody
Procedure: A dose response curve (1:5 dilution) was generated. Following incubation, 200 μL of ice-cold FACS buffer were pipetted in and the cell suspension was centrifuged at 4° C., 400 g for 4 min. The cell pellet was washed with 300 μL of ice-cold FACS buffer prior to resuspending the pellet obtained in 100 μL of FACS buffer and again incubating for 30 min on ice with secondary antibody (monoclonal anti-kappa light chains FITC antibody, Sigma, No. SAB4700605) in a 1:10 dilution. Subsequently, the cells were washed with ice-cold FACS buffer and adjusted to a cell concentration of 0.5×10⁶ cells/mL before carrying out the flow cytometry using a Guava flow cytometer (Millipore). Propidium iodide (final concentration 1 μg/mL) was used for the live staining. With the aid of the background-corrected geometric mean fluorescence values, the IC50 value of the antibody to be investigated was determined.

[4] = target: T2, TPP-3760, B7H3 long, human (R&D Systems 2318-B3/CF) (human, UniProt Q5ZPR3 27-461); assay: ELISA, IgG captured on anti-human IgG Fc, antigen 37 ng/ml, anti-His HRP detection
T2 construct: Bought protein; also called B7H3 (RnDSystems, 2318-B3-050/CF); human B7H3
T2 sequence: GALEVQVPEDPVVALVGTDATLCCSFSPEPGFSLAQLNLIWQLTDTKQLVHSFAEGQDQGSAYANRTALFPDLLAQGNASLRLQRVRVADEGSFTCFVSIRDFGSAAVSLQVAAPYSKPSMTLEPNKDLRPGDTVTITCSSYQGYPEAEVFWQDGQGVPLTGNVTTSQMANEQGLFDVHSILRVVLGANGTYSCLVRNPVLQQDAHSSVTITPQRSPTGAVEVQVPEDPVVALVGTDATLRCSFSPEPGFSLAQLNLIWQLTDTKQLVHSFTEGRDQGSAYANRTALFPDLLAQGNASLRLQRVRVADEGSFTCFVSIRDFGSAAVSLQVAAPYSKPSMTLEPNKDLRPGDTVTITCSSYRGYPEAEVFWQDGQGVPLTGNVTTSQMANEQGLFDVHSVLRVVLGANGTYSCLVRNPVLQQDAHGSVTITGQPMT
Procedure: (§1) Binding of the antibodies to human B7H3 and to human B7H2 and B7H4 was characterized using ELISAs. […] After washing once with PSB, 0.05% Tween, the plate was blocked with 100% Smart Block (Candor) for one hour at 37° C. The antibody to be tested was then attached to the plate (2 μg/ml IgG in PBS, 0.05% Tween, 10% Smart Block; 1 hour, room temperature). […] After washing three times, the plate was incubated with Amplex Red for 30 minutes and then read.

[5] = target: T3, human B7H4 (RnDSystems, 6576-B7) (human, UniProt Q7Z7D3 29-258, limits assumed); assay: as above
T3 construct: Bought protein; His tag implied by anti-His detection
T3 sequence (looked up): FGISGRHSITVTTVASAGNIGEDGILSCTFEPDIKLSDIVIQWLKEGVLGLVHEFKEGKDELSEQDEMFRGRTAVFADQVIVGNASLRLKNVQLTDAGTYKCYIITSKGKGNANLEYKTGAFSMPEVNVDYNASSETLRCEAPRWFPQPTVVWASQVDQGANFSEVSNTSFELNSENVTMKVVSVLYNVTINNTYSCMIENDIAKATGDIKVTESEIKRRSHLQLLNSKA
Procedure: as §1

[6] = target: T4, human B7H2 (RnDSystems, 8206-B7) (human, UniProt O75144 19-258, limits assumed); assay: as above
T4 construct: Bought protein; His tag implied by anti-His detection
T4 sequence (looked up): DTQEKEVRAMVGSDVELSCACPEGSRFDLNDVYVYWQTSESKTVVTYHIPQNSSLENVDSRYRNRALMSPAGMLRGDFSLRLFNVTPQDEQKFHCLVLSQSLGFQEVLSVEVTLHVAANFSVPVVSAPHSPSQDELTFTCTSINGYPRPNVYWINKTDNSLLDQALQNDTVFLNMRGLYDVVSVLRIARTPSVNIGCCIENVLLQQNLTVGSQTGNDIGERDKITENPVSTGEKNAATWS
Procedure: as §1

B1: ADC Example 208-6501 (antibody, human IgG1, lambda, V domains shown)
VH: EVQLLESGGGLVQPGGSLRLSCAASGFTFSSYGMHWVRQAPGKGLEWVSAISGSGGSTYYADSVKGRFTISRDNSKNTLYLQMNSLRAEDTAVYYCARGSNYLGMDVWGQGTLVTVSS
VL: QSVLTQPPSASGTPGQRVTISCSGSSSNIGRNIVNWYQQLPGTAPKLLIYRSNQRPSGVPDRFSGSKSGTSASLAISGLRSEDEADYYCQTWGTGWVFGGGTKLTVLG
modifications: drug-linker from Intermediate F104 on Cys, sites not stated
[1]
  U251 CTG (IC50 M): 0.295 nM
[2]
  A498 CTG (IC 50 M): < 0.03 nM
  MCF-7 CTG (IC50 M): 0.161 nM

B2: ADC Example 208-6515 (antibody, human IgG1, lambda, V domains shown)
VH: EVQLLESGGGLVQPGGSLRLSCAASGFTFSSYGMHWVRQVPGKGLEWVSAISGSGGTTYYADSVKGRFTISRDNSKNTLYLQMNSLRAEDTAVYYCARGGYHFLFDYWGQGTLVTVSS
VL: QSVLTQPPSASGTPGQRVTISCSGSSSNIGSNTVNWYQQLPGTAPKLLIYRNDQRLLGVPDRFSGSKSGTSASLAISGLRSEDEADYYCQSYDSSLSGWVFGGGTKLTVLG
modifications: drug-linker from Intermediate F104 on Cys, sites not stated
[1]
  U251 CTG (IC50 M): 0.41 nM
[2]
  A498 CTG (IC 50 M): 0.688 nM
  MCF-7 CTG (IC50 M): 0.338 nM

B3: ADC Example 297-6501 (antibody, human IgG1, lambda, V domains shown)
VH: EVQLLESGGGLVQPGGSLRLSCAASGFTFSSYGMHWVRQAPGKGLEWVSAISGSGGSTYYADSVKGRFTISRDNSKNTLYLQMNSLRAEDTAVYYCARGSNYLGMDVWGQGTLVTVSS
VL: QSVLTQPPSASGTPGQRVTISCSGSSSNIGRNIVNWYQQLPGTAPKLLIYRSNQRPSGVPDRFSGSKSGTSASLAISGLRSEDEADYYCQTWGTGWVFGGGTKLTVLG
modifications: drug-linker from Intermediate F297 on Cys, sites not stated
[1]
  U251 CTG (IC50 M): 0.704 nM

B4: ADC Example 284-6501 (antibody, human IgG1, lambda, V domains shown)
VH: EVQLLESGGGLVQPGGSLRLSCAASGFTFSSYGMHWVRQAPGKGLEWVSAISGSGGSTYYADSVKGRFTISRDNSKNTLYLQMNSLRAEDTAVYYCARGSNYLGMDVWGQGTLVTVSS
VL: QSVLTQPPSASGTPGQRVTISCSGSSSNIGRNIVNWYQQLPGTAPKLLIYRSNQRPSGVPDRFSGSKSGTSASLAISGLRSEDEADYYCQTWGTGWVFGGGTKLTVLG
modifications: drug-linker from Intermediate F284 on Cys, sites not stated
[1]
  U251 CTG (IC50 M): 62.9 nM

B5: ADC Example 281-6501 (antibody, human IgG1, lambda, V domains shown)
VH: EVQLLESGGGLVQPGGSLRLSCAASGFTFSSYGMHWVRQAPGKGLEWVSAISGSGGSTYYADSVKGRFTISRDNSKNTLYLQMNSLRAEDTAVYYCARGSNYLGMDVWGQGTLVTVSS
VL: QSVLTQPPSASGTPGQRVTISCSGSSSNIGRNIVNWYQQLPGTAPKLLIYRSNQRPSGVPDRFSGSKSGTSASLAISGLRSEDEADYYCQTWGTGWVFGGGTKLTVLG
modifications: drug-linker from Intermediate F281 on Cys, sites not stated
[1]
  U251 CTG (IC50 M): 29.9 nM

B6: ADC Example 173-6515 (antibody, human IgG1, lambda, V domains shown)
VH: EVQLLESGGGLVQPGGSLRLSCAASGFTFSSYGMHWVRQVPGKGLEWVSAISGSGGTTYYADSVKGRFTISRDNSKNTLYLQMNSLRAEDTAVYYCARGGYHFLFDYWGQGTLVTVSS
VL: QSVLTQPPSASGTPGQRVTISCSGSSSNIGSNTVNWYQQLPGTAPKLLIYRNDQRLLGVPDRFSGSKSGTSASLAISGLRSEDEADYYCQSYDSSLSGWVFGGGTKLTVLG
modifications: drug-linker from Intermediate F173 on Cys, sites not stated
[2]
  A498 CTG (IC 50 M): > 307 nM
  Caki-2 CTG (IC50 M): 2.57 nM

B7: ADC Example 208-6499 (antibody, human IgG1, lambda, V domains shown)
VH: EVQLLESGGGLVQPGGSLRLSCAASGFTFRDFYMNWIRQAPGKGLEWVSSISASGKYTYYADSVKGRFTISRDNSKNTLYLQMNSLRAEDTAVYYCAREWGYCTNDVCRNWFDPWGQGTLVTVSS
VL: QSVLTQPPSASGTPGQRVTISCSGGYSNVGGNNVNWYQQLPGTAPKLLIYGNSNRPSGVPDRFSGSKSGTSASLAISGLRSEDEADYYCQSYDSSLSGSVFGGGTKLTVLG
modifications: drug-linker from Intermediate F104 on Cys, sites not stated
[2]
  MCF-7 CTG (IC50 M): 0.135 nM

B8: ADC Example 194-6502 (antibody, human IgG1, lambda, V domains shown)
VH: EVQLLESGGGLVQPGGSLRLSCAASGFTFSTYGMHWVRQAPGKGLEWVSAISGSGGSTYYADSVKGRFTISRDNSKNTLYLQMNSLRAEDTAVYYCTRGYYYYGMDVWGQGTLVTVSS
VL: QSVLTQPPSASGTPGQRVTISCSGGSSNIGSNPVNWYQQLPGTAPKLLIYGNSKRPSGVPDRFSGSKSGTSASLAISGLRSEDEADYYCQSYDSSLSGWVFGGGTKLTVLG
modifications: drug-linker from Intermediate F194 on Lys, sites not stated
[2]
  A498 CTG (IC 50 M): 2.93 nM
  MCF-7 CTG (IC50 M): 1 nM

B9: ADC Example 274-6499 (antibody, human IgG1, lambda, V domains shown)
VH: EVQLLESGGGLVQPGGSLRLSCAASGFTFRDFYMNWIRQAPGKGLEWVSSISASGKYTYYADSVKGRFTISRDNSKNTLYLQMNSLRAEDTAVYYCAREWGYCTNDVCRNWFDPWGQGTLVTVSS
VL: QSVLTQPPSASGTPGQRVTISCSGGYSNVGGNNVNWYQQLPGTAPKLLIYGNSNRPSGVPDRFSGSKSGTSASLAISGLRSEDEADYYCQSYDSSLSGSVFGGGTKLTVLG
modifications: drug-linker from Intermediate F274 on Cys, sites not stated
[1]
  U251 CTG (IC50 M): 1.2 nM

B10: ADC Example 257-6499 (antibody, human IgG1, lambda, V domains shown)
VH: EVQLLESGGGLVQPGGSLRLSCAASGFTFRDFYMNWIRQAPGKGLEWVSSISASGKYTYYADSVKGRFTISRDNSKNTLYLQMNSLRAEDTAVYYCAREWGYCTNDVCRNWFDPWGQGTLVTVSS
VL: QSVLTQPPSASGTPGQRVTISCSGGYSNVGGNNVNWYQQLPGTAPKLLIYGNSNRPSGVPDRFSGSKSGTSASLAISGLRSEDEADYYCQSYDSSLSGSVFGGGTKLTVLG
modifications: drug-linker from Intermediate F257 on Cys, sites not stated
[1]
  U251 CTG (IC50 M): 0.0736 nM
[2]
  A498 CTG (IC 50 M): 0.247 nM
  Caki-2 CTG (IC50 M): < 0.03 nM

B11: ADC Example 208-6502 (antibody, human IgG1, lambda, V domains shown)
VH: EVQLLESGGGLVQPGGSLRLSCAASGFTFSTYGMHWVRQAPGKGLEWVSAISGSGGSTYYADSVKGRFTISRDNSKNTLYLQMNSLRAEDTAVYYCTRGYYYYGMDVWGQGTLVTVSS
VL: QSVLTQPPSASGTPGQRVTISCSGGSSNIGSNPVNWYQQLPGTAPKLLIYGNSKRPSGVPDRFSGSKSGTSASLAISGLRSEDEADYYCQSYDSSLSGWVFGGGTKLTVLG
modifications: drug-linker from Intermediate F104 on Cys, sites not stated
[1]
  U251 CTG (IC50 M): 0.933 nM
[2]
  A498 CTG (IC 50 M): 0.0667 nM

B12: TPP-6502 (antibody, human IgG1, lambda, V domains shown)
VH: EVQLLESGGGLVQPGGSLRLSCAASGFTFSTYGMHWVRQAPGKGLEWVSAISGSGGSTYYADSVKGRFTISRDNSKNTLYLQMNSLRAEDTAVYYCTRGYYYYGMDVWGQGTLVTVSS
VL: QSVLTQPPSASGTPGQRVTISCSGGSSNIGSNPVNWYQQLPGTAPKLLIYGNSKRPSGVPDRFSGSKSGTSASLAISGLRSEDEADYYCQSYDSSLSGWVFGGGTKLTVLG
[3]
  EC50: 0.143 nM
[4]
  Quotient signal (B7)/signal (buffer): 126
[5]
  Quotient signal (B7)/signal (buffer): < 1.5
[6]
  Quotient signal (B7)/signal (buffer): < 1.5
